# Laboratory results as given in US20040197862A1.
# Target: HLA-DR2b (DRA, DRB1*1501), soluble, thrombin-cleaved DR/CLIP complex (human)
row,Substance,IC50
1,HIV p24 (1-22) peptide,8 µM
2,HIV p24 (51-72) peptide,10.8 µM
3,HIV p24 (111-132) peptide,10.8 µM
4,HIV p24 (161-182) peptide,9 µM
5,HIV p24 (171-192) peptide,0.9 µM
6,HIV p24 (191-212) peptide,3 µM

# Target: HLA-DR1 (DRA, DRB1*0101), soluble, thrombin-cleaved DR/CLIP complex (human)
row,Substance,IC50
1,HIV p24 (191-212) peptide,1.6 µM
